Experimental data reported in patent US20160193316A1 (priority 1994, published 2016).
Read-outs that look alike come from different tables or passages of the source.

Assays:
[1] = molecular target: HLA-A*0201 (Homo sapiens, UniProt P04439, D140Y/D185E/D98H/E176V/E277Q/G131W/G231S/I119V/I121R/I166T/I218V/L300P/L318F/N151K/N90K/P208A/P217A/Q86G/Q94H/R138H/R169H/T345S); test: HLA class I peptide binding assay
[2] = molecular target: T1, DRB5*0101 (DR2w2β2) (Homo sapiens, UniProt P01903+Q30154); type: binding
T1 construct: expressed in transfected cells; host or cells: L416.3 (fibroblasts) or GM3107

[3] = molecular target: T2, DRB1*0405 (DR4w15) (Homo sapiens, UniProt P01903+P01911, A100R/A169T/D86S/F76Y/I96L/K127E/L162R/M171V/N62H/P40V/Q125Y/R42H/S133A/S149N/S66Y/V115G/V209L/W38E); test: HLA class II peptide binding assay; details: Table XIXb; DR4w15
T2 construct: endogenous in cells; host or cells: KT3

[4] = molecular target: T3, DRB1*0901 (DR9) (Homo sapiens, UniProt P01903+P01911, A100R/A103E/D57H/D86V/F55Y/F60I/F76Y/I96F/K127E/L162R/M171V/P40D/Q125H/Q99R/R33Q/R42F/S133A/S66N/T210M/V115G/W38K/Y107V/Y59G/Y89S); test: biochemical; type: binding
T3 construct: endogenous in cells; host or cells: HID

[5] = molecular target: T4, DRB1*1302 (DR6w19) (Homo sapiens, UniProt P01903+P01911, A100E/A169T/K41T/L162R/M171V/P40S/Q125H/Q178H/Q39Y/Q99D/R42S/S66N/T262R/V115G/W38E/Y61H); test: HLA class II peptide binding assay; details: Table XIXb; DR6w19
T4 construct: endogenous in cells; host or cells: H0301

[6] = molecular target: T5, DRB1*0401 (DR4w4) (Homo sapiens, UniProt P01903+P01911, A100K/A169T/F76Y/I96L/K127E/L162R/M171V/N62H/P40V/Q125Y/R42H/S133A/S149N/S66Y/V115G/V209L/W38E); test: HLA class II peptide binding assay; details: Table XIXb; DR4w4
T5 construct: endogenous in cells; host or cells: Preiss

[7] = molecular target: T6, DRB1*0701 (DR7) (Homo sapiens, UniProt P01903+P01911, A100R/A102G/A103Q/D57E/D86V/E43K/F76Y/K127E/L162R/M171V/P40G/Q125H/Q99D/R33Q/R42Y/R54Q/S133A/S66F/T210M/V115G/Y107V/Y59L/Y89S); test: biochemical; type: binding
T6 construct: endogenous in cells; host or cells: Pitout

[8] = molecular target: T7, DRB1*0101 (DR1) (Homo sapiens, UniProt P01903+P01911, A100R/D57E/F55L/F60I/F76Y/I96L/L162R/M171V/P40L/Q125E/R42F/V115G/Y59C); test: HLA class II peptide binding assay; details: Table XIXb, Malaria Super Motif Peptides With Binding Data; DR1
T7 construct: endogenous in cells; host or cells: LG2

[9] = molecular target: T8, DRB1*1501 (DR2w2β1) (Homo sapiens, UniProt P01903+P01911); test: HLA class II peptide binding assay; details: Table XIXb; DR2w2β1
T8 construct: expressed in transfected cells; host or cells: L466.1 (fibroblasts)

[10] = molecular target: T9, DRB1*1201 (DR5w12) (Homo sapiens, UniProt P01903+P01911, A100R/A169T/D57E/D86V/F55L/H45Y/K41T/L162R/M171V/P40S/Q125H/Q178H/Q39Y/Q99D/R42G/S66L/T262R/V114A/V67L/W38E/Y59H/Y61H/Y89S); test: HLA class II peptide binding assay; details: Table XIXb; DR5w12
T9 construct: endogenous in cells; host or cells: Herluf

[11] = molecular target: T10, DRB1*0301 (DR3) (Homo sapiens, UniProt P01903+P01911, A100K/A102G/A103R/A169T/F55Y/I96L/K41T/L162R/M171V/P40S/Q125H/Q178H/Q39Y/R42S/S66N/T106N/T262R/W38E/Y61H); test: HLA class II peptide binding assay (pH 4.5); details: for DR3 binding data: Table XIXb
T10 construct: endogenous in cells; host or cells: MAT

[12] = molecular target: T11, DRB1*0802 (DR8w2) (Homo sapiens, UniProt P01903+P01911, A100R/A103L/A169T/F76Y/H45Y/I96F/K41T/L162R/M171V/P40S/Q125H/Q178H/Q39Y/Q99D/R218S/R42G/S66Y/V115G/W38E); test: biochemical; type: binding
T11 construct: endogenous in cells; host or cells: OLL

[13] = molecular target: T12, DRB1*1101 (DR5w11) (Homo sapiens, UniProt P01903+P01911, A100R/A169T/A87E/I96F/K41T/L162R/M171V/P40S/Q125H/Q178H/Q39Y/Q99D/R42S/S66Y/T262R/V115G/W38E); test: biochemical; type: binding
T12 construct: endogenous in cells; host or cells: Sweig

[14] = molecular target: HLA-A*2402 (Homo sapiens, UniProt P04439, D101N/D140Y/D185E/E176V/E190D/F33S/G103R/G107R/I119L/I121M/I306V/K335N/L105A/L180Q/L300P/N151K/N90K/Q86E/Q94H/R106L/R138H/R89G/T104I/T345S/V100E/W191G/Y123F); test: HLA class I peptide binding assay
[15] = molecular target: T13, HLA-B*0702 (Homo sapiens, UniProt P01889); test: HLA class I peptide binding assay; details: Malaria B07 super motif peptides; binding value, no unit
T13 construct: endogenous in cells; host or cells: GM3107

[16] = molecular target: T14, DRB4*0101 (DRw53) (Homo sapiens, UniProt P01903+P13762, G164S); test: HLA class II peptide binding assay (pH 5.0); details: Table XIXb; DRw53
T14 construct: expressed in transfected cells; host or cells: L257.6 (fibroblasts)

[17] = Malaria A02 motif peptides, Table VIII, unit not given

T12 sequence (P01903 26-254, other chains not shown): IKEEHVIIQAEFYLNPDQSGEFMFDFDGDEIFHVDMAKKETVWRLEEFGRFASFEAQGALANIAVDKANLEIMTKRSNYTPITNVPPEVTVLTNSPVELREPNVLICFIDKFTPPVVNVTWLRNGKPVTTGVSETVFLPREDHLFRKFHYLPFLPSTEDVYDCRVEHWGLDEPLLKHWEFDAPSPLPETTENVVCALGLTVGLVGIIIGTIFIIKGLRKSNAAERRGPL
T4 sequence (P01903 26-254, other chains not shown): as above
T7 sequence (P01903 26-254 partner, other chains not shown): as the sequence (P01903 26-254, other chains not shown) above
T5 sequence (P01903 26-254 partner, other chains not shown): as the sequence (P01903 26-254, other chains not shown) above

LLGGVCLVL was tested, and the “A*0201 (binding information)” value [1, 17] was 0.0038.

For LIFFDLFLV, the DR2w2β2 binding data [2] was 0.0019, the DR4w15 binding data [3] was -0.0009 and the DR9 binding data [4] was -0.0003. For the same sequence, the DR6w19 binding data [5] was 0.0006, the DR4w4 binding data [6] was 0.0130 and the DR7 binding data [7] was 0.0028. For the same sequence, the DR1 binding data [8] was 0.0006, the DR2w2β1 binding data [9] was 0.0048 and the “A*0201 (binding information)” value [1, 17] was 0.0890. The DR5w12 binding data [10] was 0.0016, the DR3 binding data [11] was -0.0008 and the DR8w2 binding data [12] was 0.0007. It also gave a DR5w11 binding data [13] of 0.0019.

In the case of SVLACLLGNV, the “A*0201 (binding information)” value [1, 17] is reported as 0.0022.

In the case of YYIPHQSSL, the “A*201 (binding information)” value [14] is reported as 4.3000 and the “A*2401 (binding information, Malaria A24 motif peptides)” value [14] is reported as 4.3000.

With VPGAAIPYA the “B*0702 (binding information)” value [15] was 0.0001.

FMKAVCVEV showed a DR2w2β2 binding data [2] of 0.0430, a DR4w15 binding data [3] of 0.0086 and a DR9 binding data [4] of 0.0820. The DR6w19 binding data [5] was 0.0003, the DR4w4 binding data [6] was -0.0006 and the DRw53 binding data [16] was 0.0700. The DR7 binding data [7] was 0.0019, the DR1 binding data [8] was 0.0072 and the DR2w2β1 binding data [9] was 0.0003. The “A*0201 (binding information)” value [1, 17] was 0.0290, the DR5w12 binding data [10] was 0.0038 and the DR3 binding data [11] was -0.0008. For the same sequence, the DR8w2 binding data [12] was -0.0003 and the DR5w11 binding data [13] was -0.0004.

In the case of GLIMVLSFL, the “A*0201 (binding information)” value [1] is reported as 0.0630.

For AMICLIQQLNL, the “A*0201 (binding information)” value [1, 17] was 0.0006.

With KYLVIVFLI the “A*201 (binding information)” value [14] was 4.6000 and the “A*2401 (binding information, Malaria A24 motif peptides)” value [14] was 4.6000.

GPFMKAVCV was tested, and the “B*0702 (binding information)” value [15] was 0.0023.

LTMSNVKNV was tested, and the DR2w2β2 binding data [2] was 0.0009, the DR4w15 binding data [3] was 0.0074 and the DR9 binding data [4] was 0.0710. It also gave a DR6w19 binding data [5] of 0.0430, a DR4w4 binding data [6] of 0.0023 and a DRw53 binding data [16] of 0.0024. For the same sequence, the DR7 binding data [7] was 0.0410, the DR1 binding data [8] was 0.0018 and the DR2w2β1 binding data [9] was 0.0003. The “A*0201 (binding information)” value [1, 17] was 0.0010, the DR5w12 binding data [10] was 0.0001 and the DR3 binding data [11] was 0.0058. For the same sequence, the DR8w2 binding data [12] was 0.0110 and the DR5w11 binding data [13] was 0.0030.

TPYAGEPAPF was tested, and the “B*0702 (binding information)” value [15] was 0.0990.

PYAQEPAPF was tested, and the HLA-A24 binding value ([14]; Table X, Malaria A24 Super Motif Peptides With Binding Information, unit not given) was 0.0370.

With MPNDPNRNV the DR3 binding information ([11]; DR3a motif peptides, unit not given, exemplary 15-mer containing the core sequence) was -0.0033 and the “B*0702 (binding information)” value [15] was 0.0001.
